Measured values taken from patent publication US20090137002A1 (published 2009).

T1: myc-tagged human EphB4 on transfected CHO cells (human, UniProt P54760 16-987)
T1 construct: whole, on cells; also called CHO-EphB4; CHO-hEphB4; not shown: myc tag
T1 sequence (looked up): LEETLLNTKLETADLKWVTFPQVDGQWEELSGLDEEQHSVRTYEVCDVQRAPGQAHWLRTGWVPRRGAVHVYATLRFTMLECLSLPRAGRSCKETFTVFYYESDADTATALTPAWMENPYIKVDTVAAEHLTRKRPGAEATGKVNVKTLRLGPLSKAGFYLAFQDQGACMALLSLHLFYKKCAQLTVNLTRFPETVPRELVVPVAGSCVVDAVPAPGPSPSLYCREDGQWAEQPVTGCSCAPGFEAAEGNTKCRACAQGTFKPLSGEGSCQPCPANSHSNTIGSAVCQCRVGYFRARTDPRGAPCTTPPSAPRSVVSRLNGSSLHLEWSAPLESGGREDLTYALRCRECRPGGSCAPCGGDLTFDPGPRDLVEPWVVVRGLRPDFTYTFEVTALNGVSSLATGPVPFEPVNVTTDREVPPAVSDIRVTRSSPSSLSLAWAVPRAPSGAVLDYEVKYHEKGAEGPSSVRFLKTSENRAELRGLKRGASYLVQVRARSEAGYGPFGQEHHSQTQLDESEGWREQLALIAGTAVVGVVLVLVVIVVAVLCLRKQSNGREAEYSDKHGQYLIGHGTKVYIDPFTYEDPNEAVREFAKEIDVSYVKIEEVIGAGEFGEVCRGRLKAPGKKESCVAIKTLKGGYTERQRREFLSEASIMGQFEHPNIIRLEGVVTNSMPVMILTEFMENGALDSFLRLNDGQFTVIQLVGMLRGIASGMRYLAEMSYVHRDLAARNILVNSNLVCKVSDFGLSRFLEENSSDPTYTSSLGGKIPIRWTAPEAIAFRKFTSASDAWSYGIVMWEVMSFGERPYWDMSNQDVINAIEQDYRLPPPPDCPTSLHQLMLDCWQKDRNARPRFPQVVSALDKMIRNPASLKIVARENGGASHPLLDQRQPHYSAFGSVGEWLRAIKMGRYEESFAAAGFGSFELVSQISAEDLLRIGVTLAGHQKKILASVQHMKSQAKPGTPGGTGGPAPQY

T2: recombinant mouse EphB3-Fc fusion protein (mouse, UniProt P54754 30-537, limits assumed)
T2 construct: also called mEphB3; not shown: Fc part, not described
T2 sequence (looked up): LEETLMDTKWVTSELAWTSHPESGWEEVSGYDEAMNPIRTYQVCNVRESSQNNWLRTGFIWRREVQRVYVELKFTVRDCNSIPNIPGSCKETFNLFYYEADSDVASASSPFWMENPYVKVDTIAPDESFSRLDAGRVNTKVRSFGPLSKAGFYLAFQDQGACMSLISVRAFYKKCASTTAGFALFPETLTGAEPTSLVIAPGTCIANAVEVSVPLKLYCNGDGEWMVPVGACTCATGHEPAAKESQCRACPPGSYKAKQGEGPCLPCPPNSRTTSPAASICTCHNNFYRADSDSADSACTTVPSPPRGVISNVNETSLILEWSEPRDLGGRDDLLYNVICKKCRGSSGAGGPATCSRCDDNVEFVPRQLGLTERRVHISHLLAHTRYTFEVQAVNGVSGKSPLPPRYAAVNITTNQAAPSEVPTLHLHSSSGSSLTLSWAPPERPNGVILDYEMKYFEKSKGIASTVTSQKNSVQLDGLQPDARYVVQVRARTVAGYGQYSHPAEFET

T3: recombinant human EphB4-Fc fusion protein (human, UniProt P54760 16-539)
T3 construct: extracellular domain; also called hEphB4; hu EphB4-Fc
T3 sequence (looked up): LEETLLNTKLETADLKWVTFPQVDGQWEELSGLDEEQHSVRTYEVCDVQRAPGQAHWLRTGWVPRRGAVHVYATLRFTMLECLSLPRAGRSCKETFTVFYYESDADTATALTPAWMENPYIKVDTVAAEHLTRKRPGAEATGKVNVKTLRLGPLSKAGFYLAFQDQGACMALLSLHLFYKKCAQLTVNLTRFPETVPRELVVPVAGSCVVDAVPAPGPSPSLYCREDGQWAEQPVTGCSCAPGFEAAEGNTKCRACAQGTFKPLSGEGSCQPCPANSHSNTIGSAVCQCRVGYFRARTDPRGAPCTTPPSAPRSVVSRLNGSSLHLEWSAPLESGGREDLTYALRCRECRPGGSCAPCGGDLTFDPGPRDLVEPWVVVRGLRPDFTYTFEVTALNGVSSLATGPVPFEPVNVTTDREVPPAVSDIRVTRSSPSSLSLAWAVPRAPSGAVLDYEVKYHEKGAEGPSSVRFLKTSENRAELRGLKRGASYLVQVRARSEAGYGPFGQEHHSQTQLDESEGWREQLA

B1: MOR07729 IgG4-Pro (antibody, V domains shown)
VH: QVELVQSGAEVKKPGSSVKVSCKASGGTFSTYAISWVRQAPGQGLEWMGRIIPIFGTANYAQKFQGRVTITADESTSTAYMELSSLRSEDTAVYYCARSSYTILTTYYNYNAMDNWGQGTLVTVSS
VL: DIQMTQSPSSLSASVGDRVTITCRASQNINNFLNWYQQKPGKAPKLLIYGSSILQSGVPSRFSGSGSGTDFTLTISSLQPEDFATYYCQQYDFYLSGTFGQGTKVEIKR
notes: Fab MOR07729 converted into human IgG4-Pro format
B2: recombinant murine EphrinB2 (extracellular domain) (ligand, mouse, UniProt P52800 29-232, looked up)
chain: RSIVLEPIYWNSSNSKFLPGQGLVLYPQIGDKLDIICPKVDSKTVGQYEYYKVYMVDKDQADRCTIKKENTPLLNCARPDQDVKFTIKFQEFSPNLWGLEFQKNKDYYIISTSNGSLEGLDNQEGGVCQTRAMKILMKVGQDASSAGSARNHGPTRRPELEAGTNGRSSTTSPFVKPNPGSSTDGNSAGHSGNNLLGSEVALFA
modifications: biotinylated in Examples 8 and 10-12
notes: extracellular domain; also called mEphrinB2; recombinant biotinylated murine EphrinB2
B3: MOR07720 IgG4-Pro (antibody, V domains shown)
VH: QVQLVESGGGLVQPGGSLRLSCAASGFTFNNAWMSWVRQAPGKGLEWVSQIEAKQPGGATSYAASVKGRFTISRDNSKNTLYLQMNSLRAEDTAVYYCARKGMSFYNNKYAKSMFDLWGQGTLVTVSS
VL: DIELTQPPSVSVAPGQTARISCSGDNLGKKYVHWYQQKPGQAPVLVIYYDSKRPSGIPERFSGSNSGNTATLTISGTQAEDEADYYCSAWTTTMMHIVFGGGTKLTVLG
notes: Fab MOR07720 converted into human IgG4-Pro format

Key:
[1] = target: T1, myc-tagged human EphB4 on transfected …; experiment: FACS, IgG4-Pro inhibition of murine ephrin-B2 binding to CHO-EphB4 cells; end tied by Table 11 (11.55)
Protocol: (§1) C50 values (i.e. IgG4-Pro inhibition of ligand binding) were determined in FACS. […] Receptor-bound ephrin-B2 was detected via biotinylated anti-mouse ephrin-B2 antibody (R&D Systems) and streptavidin-PE. The IC50 values of the IgGs, determined in two independent experiments, are given in Table 11 and are compared to the IC50 values of the corresponding Fab. […] Again, as already seen for the Fab, the IC50 values of the MOR07310 pool were slightly better than those of the MOR03641 pool.

[2] = target: T1, myc-tagged human EphB4 on transfected …; experiment: FACS competition on CHO-EphB4 cells, competitor murine ephrin-B2
Protocol: as §1

[3] = target: T1, myc-tagged human EphB4 on transfected …; experiment: FACS titration of IgG4-Pro on CHO-EphB4 cells
Protocol: (§2) For the determination of EC50 values, the 12 final IgGs were analyzed on CHO-EphB4 cells in FACS. The EC50 values of the IgGs, determined in two independent experiments, are given in Table 11 and are compared to the EC50 values of the corresponding Fab. […] Again, as already seen for the Fab, the EC50 values of the MOR07310 pool were slightly better than those of the MOR03641 pool.

[4] = target: T1, myc-tagged human EphB4 on transfected …; experiment: FACS titration of IgG4-Pro on CHO-EphB4 cells; end tied by Table 11 (4.83)
Protocol: as §2

[5] = target: T1, myc-tagged human EphB4 on transfected …; experiment: FACS, IgG4-Pro inhibition of murine ephrin-B2 binding to CHO-EphB4 cells
Protocol: as §1

[6] = target: T4, recombinant mouse EphA4-Fc fusion protein (mouse, UniProt Q03137 20-547, limits assumed); experiment: ELISA: biotinylated mEphrinB2 on coated mEphA4
T4 construct: also called mEphA4; not shown: Fc part, not described
T4 sequence (Q03137 20-547 limits assumed): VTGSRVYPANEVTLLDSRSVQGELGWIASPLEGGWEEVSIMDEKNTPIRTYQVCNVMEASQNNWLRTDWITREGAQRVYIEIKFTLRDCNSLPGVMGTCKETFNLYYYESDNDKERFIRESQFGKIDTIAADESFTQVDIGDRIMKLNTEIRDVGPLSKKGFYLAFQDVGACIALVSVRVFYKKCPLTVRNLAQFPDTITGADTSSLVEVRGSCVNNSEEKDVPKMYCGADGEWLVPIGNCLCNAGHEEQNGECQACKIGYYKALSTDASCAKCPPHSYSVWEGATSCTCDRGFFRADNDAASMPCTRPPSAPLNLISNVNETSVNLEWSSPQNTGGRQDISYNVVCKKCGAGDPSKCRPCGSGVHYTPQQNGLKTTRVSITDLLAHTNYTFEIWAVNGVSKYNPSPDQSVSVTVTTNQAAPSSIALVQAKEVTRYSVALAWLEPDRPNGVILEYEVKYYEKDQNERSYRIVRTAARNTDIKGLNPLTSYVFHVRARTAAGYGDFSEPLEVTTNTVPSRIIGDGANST
Protocol: (§3) A 96-well plate was coated with recombinant mEphB3, mEphA4 and hEphB4 in PBS o/n at 4° C. (5 μg/mL; 100 μL/well). The next day, the antigen was discarded and the plate blocked with 3% BSA/PBS (300 μl/well) for 2 hrs at room temperature (RT). Blocking solution was discarded and anti-EphB4 Fabs were added to the wells at a concentration of 100 μg/mL in 1% BSA/PBS and incubated for 30 min at RT. Recombinant biotinylated murine EphrinB2 was added at a final concentration of 250 ng/mL and incubated at RT for a further 30 min. The plate was washed and bound EphrinB2 was detected with Streptavidin-HRP (incubation 30 min at RT) and chemifluorescent substrate.

[7] = target: T2, recombinant mouse EphB3-Fc fusion …; experiment: ELISA: biotinylated mEphrinB2 (250 ng/mL) on coated mEphB3, with or without 100 µg/mL anti-EphB4 Fab
Protocol: as §3

[8] = target: T3, recombinant human EphB4-Fc fusion …; experiment: ELISA: biotinylated mEphrinB2 (250 ng/mL) on coated hEphB4, with or without 100 µg/mL anti-EphB4 Fab
Protocol: as §3

[9] = target: T1, myc-tagged human EphB4 on transfected …; experiment: FACS titration of IgG4-Pro on CHO-EphB4 cells; n = 1
Protocol: as §2

Binder | IC50 [1] | IC50 (read off the curve) [2] | EC50 [3] | EC50 (read off the curve) [3] | EC50 [4] | IC50 [5] | binding result [6] | binding result [7] | binding result [8] | EC50 [9]
B1 | 11.6 nM | ~20 nM | 4.83 nM | ~5 nM | 4.8 nM | 11.6 nM | – | – | – | –
B2 | – | – | – | – | – | – | no binding (tested: 250 ng/mL) | binds | binds | –
B3 | – | ~0.1 nM | – | – | – | 0.11 nM | – | – | – | 0.3 nM
